Publication PMC4861126

Target: Rap1 preloaded with mGppNHp (GDI assay) (Dictyostelium) (UniProt P18613)
Assay: GDI (guanine nucleotide dissociation inhibition) assay, fluorescence; mGppNHp labelled G-protein with indicated amounts of RA-TalB, 200 fold excess of GppNHp, 25 °C; 50 mM Tris-HCl pH 7.5, 5 mM MgCl2, 50 mM NaCl, 5 mM DTE; Kd from dependence of kobs on RA-TalB concentration

Chain of UniProt P18613 (P18613 whole entry): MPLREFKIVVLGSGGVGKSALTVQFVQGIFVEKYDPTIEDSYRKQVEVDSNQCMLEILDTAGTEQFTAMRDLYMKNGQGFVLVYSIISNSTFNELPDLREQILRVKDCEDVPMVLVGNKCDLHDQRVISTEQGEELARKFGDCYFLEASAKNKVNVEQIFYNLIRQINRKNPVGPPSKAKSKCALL

- Kd: 19.9 µM
B1: Dictyostelium RA-TalB domain (residues 1-122) (domain or fragment)
chain: MSLTLKIQIVRDKQVKAMKFSPTQTVAEVCAQVREKINETSGDDHGLFQPGIDAKRPSRWLKMDKTLQFYDLKINDELDYKKKHRPLKVRLMDETVKTMLVDDSLTAGEILEIIGKRIGIKN
